Source: patent EP4442707

What was measured:
rabbit serum albumin = target: T1, rabbit serum albumin (Oryctolagus cuniculus, UniProt P49065); assay: SPR pH 7.4
T1 chain: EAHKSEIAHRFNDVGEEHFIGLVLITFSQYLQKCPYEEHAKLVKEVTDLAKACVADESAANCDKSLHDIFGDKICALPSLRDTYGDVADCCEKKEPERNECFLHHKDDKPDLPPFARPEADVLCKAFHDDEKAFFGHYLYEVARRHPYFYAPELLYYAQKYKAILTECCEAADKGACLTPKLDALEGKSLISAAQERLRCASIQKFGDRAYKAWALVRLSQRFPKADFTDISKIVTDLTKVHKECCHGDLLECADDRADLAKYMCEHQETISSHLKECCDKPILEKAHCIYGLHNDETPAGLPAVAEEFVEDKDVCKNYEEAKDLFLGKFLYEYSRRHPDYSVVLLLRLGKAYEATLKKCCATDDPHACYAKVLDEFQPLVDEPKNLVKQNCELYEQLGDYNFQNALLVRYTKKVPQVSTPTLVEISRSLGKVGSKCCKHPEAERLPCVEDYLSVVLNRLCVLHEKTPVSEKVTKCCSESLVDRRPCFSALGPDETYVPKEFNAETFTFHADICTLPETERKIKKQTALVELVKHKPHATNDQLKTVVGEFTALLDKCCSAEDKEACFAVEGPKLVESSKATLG

dog serum albumin = target: T2, dog serum albumin (Canis lupus familiaris, UniProt P49822); assay: SPR pH 7.4
T2 chain: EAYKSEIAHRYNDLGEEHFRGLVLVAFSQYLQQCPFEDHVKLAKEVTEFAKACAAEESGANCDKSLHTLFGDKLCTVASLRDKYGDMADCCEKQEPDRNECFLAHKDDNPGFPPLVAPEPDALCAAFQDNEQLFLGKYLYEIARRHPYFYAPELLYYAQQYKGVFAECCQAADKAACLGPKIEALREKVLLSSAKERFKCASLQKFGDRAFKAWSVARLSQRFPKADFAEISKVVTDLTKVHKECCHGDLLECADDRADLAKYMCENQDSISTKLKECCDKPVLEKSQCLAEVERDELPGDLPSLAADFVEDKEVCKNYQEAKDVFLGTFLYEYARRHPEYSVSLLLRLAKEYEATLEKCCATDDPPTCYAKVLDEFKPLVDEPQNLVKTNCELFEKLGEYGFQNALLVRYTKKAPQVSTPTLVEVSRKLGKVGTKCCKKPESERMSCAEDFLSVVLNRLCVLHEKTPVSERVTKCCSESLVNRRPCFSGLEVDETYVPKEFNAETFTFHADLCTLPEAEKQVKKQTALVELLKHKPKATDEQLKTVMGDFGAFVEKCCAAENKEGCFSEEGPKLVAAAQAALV

sheep serum albumin = target: T3, sheep serum albumin (Ovis aries, UniProt P14639); assay: SPR pH 7.4
T3 chain: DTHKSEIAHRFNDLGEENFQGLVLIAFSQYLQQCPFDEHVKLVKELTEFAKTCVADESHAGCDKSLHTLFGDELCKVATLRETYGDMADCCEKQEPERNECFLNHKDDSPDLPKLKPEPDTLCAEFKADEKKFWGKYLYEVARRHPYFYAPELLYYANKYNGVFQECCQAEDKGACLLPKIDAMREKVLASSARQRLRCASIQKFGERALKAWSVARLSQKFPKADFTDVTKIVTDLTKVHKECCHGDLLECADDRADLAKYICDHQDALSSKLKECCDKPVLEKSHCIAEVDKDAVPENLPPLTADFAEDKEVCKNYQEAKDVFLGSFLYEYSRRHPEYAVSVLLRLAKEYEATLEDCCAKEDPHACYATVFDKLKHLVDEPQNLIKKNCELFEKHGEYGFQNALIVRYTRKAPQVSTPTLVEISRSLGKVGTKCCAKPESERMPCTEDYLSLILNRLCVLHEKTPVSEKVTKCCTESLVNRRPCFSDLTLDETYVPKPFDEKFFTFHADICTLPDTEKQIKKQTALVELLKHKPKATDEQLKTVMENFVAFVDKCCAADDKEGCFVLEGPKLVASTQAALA

bovine serum albumin = bovine serum albumin (Bos taurus, UniProt P02769); assay: SPR pH 7.4
human serum albumin [1] = target: T4, human serum albumin (Homo sapiens, UniProt P02768); assay: SPR pH 7.4
rat serum albumin = target: T5, rat serum albumin (Rattus norvegicus, UniProt P02770); assay: SPR pH 7.4
T5 chain: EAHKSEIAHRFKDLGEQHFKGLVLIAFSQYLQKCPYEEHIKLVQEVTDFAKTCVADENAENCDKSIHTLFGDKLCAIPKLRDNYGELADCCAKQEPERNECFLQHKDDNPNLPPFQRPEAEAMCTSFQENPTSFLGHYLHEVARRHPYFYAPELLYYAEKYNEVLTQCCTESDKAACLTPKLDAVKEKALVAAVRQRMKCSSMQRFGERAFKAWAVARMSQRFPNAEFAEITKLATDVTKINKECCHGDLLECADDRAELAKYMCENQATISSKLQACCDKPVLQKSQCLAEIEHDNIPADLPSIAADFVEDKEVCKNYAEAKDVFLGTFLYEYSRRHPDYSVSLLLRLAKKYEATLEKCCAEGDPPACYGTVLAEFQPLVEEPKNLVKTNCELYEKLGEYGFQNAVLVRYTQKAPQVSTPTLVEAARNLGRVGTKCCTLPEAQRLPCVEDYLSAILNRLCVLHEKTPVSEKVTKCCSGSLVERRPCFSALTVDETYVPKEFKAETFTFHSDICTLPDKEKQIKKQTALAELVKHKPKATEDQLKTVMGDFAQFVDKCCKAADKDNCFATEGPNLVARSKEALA

human serum albumin [2] = target: T4, human serum albumin; assay: SPR pH 7.4; remark: listed apart in the source
human serum albumin [3] = target: T4, human serum albumin; assay: SPR pH 6.0
pig serum albumin = target: T6, pig serum albumin (Sus scrofa, UniProt P08835); assay: SPR pH 7.4
T6 chain: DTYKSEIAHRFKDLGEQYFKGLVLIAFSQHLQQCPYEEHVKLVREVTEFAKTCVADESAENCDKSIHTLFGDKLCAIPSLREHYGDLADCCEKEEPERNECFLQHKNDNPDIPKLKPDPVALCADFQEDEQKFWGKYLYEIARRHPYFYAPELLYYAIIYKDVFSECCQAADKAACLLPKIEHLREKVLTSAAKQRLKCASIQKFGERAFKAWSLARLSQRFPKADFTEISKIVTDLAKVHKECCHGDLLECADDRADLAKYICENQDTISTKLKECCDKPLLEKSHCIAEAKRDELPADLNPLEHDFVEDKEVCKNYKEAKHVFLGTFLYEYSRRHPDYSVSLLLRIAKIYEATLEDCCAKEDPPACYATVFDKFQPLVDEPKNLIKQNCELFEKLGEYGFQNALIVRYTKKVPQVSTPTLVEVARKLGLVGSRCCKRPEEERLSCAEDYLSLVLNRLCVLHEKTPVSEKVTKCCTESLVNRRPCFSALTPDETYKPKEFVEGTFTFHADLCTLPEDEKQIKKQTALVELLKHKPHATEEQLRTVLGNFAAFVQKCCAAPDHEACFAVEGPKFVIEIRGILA

cynomolgus serum albumin = target: T7, cynomolgus serum albumin (Macaca fascicularis, UniProt A2V9Z4); assay: SPR pH 7.4
T7 chain: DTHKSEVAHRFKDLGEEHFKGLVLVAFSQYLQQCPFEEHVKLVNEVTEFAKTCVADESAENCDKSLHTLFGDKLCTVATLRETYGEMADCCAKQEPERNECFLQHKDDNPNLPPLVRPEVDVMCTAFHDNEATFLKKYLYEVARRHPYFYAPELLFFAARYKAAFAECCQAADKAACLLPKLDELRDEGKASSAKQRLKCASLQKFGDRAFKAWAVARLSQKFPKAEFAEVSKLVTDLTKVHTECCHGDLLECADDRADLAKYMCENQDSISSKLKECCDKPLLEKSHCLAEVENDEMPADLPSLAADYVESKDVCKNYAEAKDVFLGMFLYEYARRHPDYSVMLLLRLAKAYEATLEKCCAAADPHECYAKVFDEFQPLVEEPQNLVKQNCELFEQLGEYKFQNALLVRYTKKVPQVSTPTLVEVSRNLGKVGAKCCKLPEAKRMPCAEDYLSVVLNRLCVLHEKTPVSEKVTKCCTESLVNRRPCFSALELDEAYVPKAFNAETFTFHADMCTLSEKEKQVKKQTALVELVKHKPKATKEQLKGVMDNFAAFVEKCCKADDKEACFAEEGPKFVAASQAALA

human serum albumin [4] = target: T4, human serum albumin; assay: SPR pH 5.0
mouse serum albumin = mouse serum albumin (Mus musculus, UniProt P07724); assay: SPR pH 7.4

- binding result (rabbit serum albumin): no binding
- Kd (dog serum albumin): 1.2 nM
- binding result (sheep serum albumin): no binding
- binding result (bovine serum albumin): no binding
- koff (human serum albumin [1]): 0.0002 s⁻¹
- Kd (rat serum albumin): 0.067 nM
- Kd (human serum albumin [2]): 0.44 nM
- koff (human serum albumin [3]): 0.00032 s⁻¹
- Kd (pig serum albumin): 45 nM
- Kd (cynomolgus serum albumin): 0.45 nM
- koff (human serum albumin [4]): 0.00051 s⁻¹
- Kd (mouse serum albumin): 0.27 nM
B1: SEQ ID NO:19 serum albumin binder (T023500029) (antibody, V domains shown)
VH: EVQLVESGGGVVQPGDSLRLSCAASGGTFSTYVMGWFRQAPGKEREFVSAISQNSIHTYYANSVKGRFTISRDNSKNTVYLQLNSLRPEDTALYYCAASRFTSWYTADYEYDYWGQGTLVTVSS
